The text below walks through data of patent EP1562972B1 (Facet Biotech Corporation, dated 2010).

Broadly, the IC50 is the point on the concentration scale where inhibition reaches its midpoint.

Experiment [1] deals with T1, human neonatal Fc receptor (FcRn), recombinant GPI-linked, on NS0 cells (human, UniProt P55899 24-297; P61769 21-119).
T1 construct: Expressed from vector pDL208 on the surface of NS0 cells; also called human FcRn; HuFcRn; not shown: human c-myc decapeptide flanked by linker peptides, then GPI linkage signal of human decay accelerating factor (vector p)
Nature of the experiment: competition flow cytometry, NS0 cells with human FcRn, vs biotinylated OST577-IgG2M3, FBB pH 6.0. A general note: Flow cytometry measures light scatter and fluorescence of single cells or particles in a stream.

The target of experiment [2] is T1, human neonatal Fc receptor (FcRn), …. Kind of experiment: competition flow cytometry, NS0 cells with human FcRn, vs biotinylated HuEP5C7-IgG2M3, FSB pH 6.0.
Experiment [3] has the same target. Kind of experiment: competition flow cytometry, NS0 cells with human FcRn, vs biotinylated HuEP5C7-IgG2M3, FBB pH 6.0.
The target is the same in experiment [4]. Nature of the experiment: competition flow cytometry, NS0 cells with human FcRn, vs biotinylated OST577-IgG1, FBB pH 6.0.
The target is the same in experiment [5]. The description is as above. This is another data set of the same source.
Experiment [6] has as its target T2, rhesus neonatal Fc receptor (FcRn), recombinant GPI-linked, on NS0 cells (rhesus, UniProt H9Z6D2 24-297; Q6V7J5 21-119, GPI-linked at the C-terminus).
T2 construct: Expressed from vector pDL410 on the surface of NS0 cells; also called rhesus FcRn; RhFcRn; not shown: human c-myc decapeptide flanked by linker peptides, then GPI linkage signal of human decay accelerating factor (vector p)
Kind of experiment: competition flow cytometry, NS0 cells with rhesus FcRn, vs biotinylated OST577-IgG1, FBB pH 6.0.

B1: OST577-IgG2M3 wild-type antibody (antibody)
chain 1: QVQLVESGGGVVQPGRSLRLSCAASGFTFSRYGMHWVRQAPGKGLEWVAVISYDGSNKWYADSVKGRFTISRDNSKNTLFLQMHSLRAADTGVYFCAKDQLYFGSQSPGHYWGQGTLVTVSSASTKGPSVFPLAPCSRSTSESTAALGCLVKDYFPEPVTVSWNSGALTSGVHTFPAVLQSSGLYSLSSVVTVPSSNFGTQTYTCNVDHKPSNTKVDKTVERKCCVECPPCPAPPAAAPSVFLFPPKPKDTLMISRTPEVTCVVVDVSHEDPEVQFNWYVDGVEVHNAKTKPREEQFNSTFRVVSVLTVVHQDWLNGKEYKCKVSNKGLPAPIEKTISKTKGQPREPQVYTLPPSREEMTKNQVSLTCLVKGFYPSDIAVEWESNGQPENNYKTTPPMLDSDGSFFLYSKLTVDKSRWQQGNVFSCSVMHEALHNHYTQKSLSLSPSK
chain 2: SYVLTQPPSVSVAPGQTARITCGGDNIGSKSVNWFQQKPGQAPVLVVYDDNERPSGISERFSGSNSGNTATLTISRVEAGDEADYYCQVWDSSSDHVVFGGGTKLTVLGQPKAAPSVTLFPPSSEELQANKATLVCLISDFYPGAVTVAWKADSSPVKAGVETTTPSKQSNNKYAASSYLSLTPEQWKSHRSYSCQVTHEGSTVEKTVAPTECS
As to B1, the values for the IC50 in experiment [1], in experiment [2] and in experiment [3] were 11.9 µg/mL, 10.7 µg/mL and 9.4 µg/mL, respectively. The “Relative Binding” value in experiment [1], in experiment [2] and in experiment [3] was 1 ratio (IC50 wild-type / IC50 mutant) throughout.

B2: OST577-IgG1 wild-type antibody (antibody)
chain 1: not shown
chain 2: SYVLTQPPSVSVAPGQTARITCGGDNIGSKSVNWFQQKPGQAPVLVVYDDNERPSGISERFSGSNSGNTATLTISRVEAGDEADYYCQVWDSSSDHVVFGGGTKLTVLGQPKAAPSVTLFPPSSEELQANKATLVCLISDFYPGAVTVAWKADSSPVKAGVETTTPSKQSNNKYAASSYLSLTPEQWKSHRSYSCQVTHEGSTVEKTVAPTECS
With B2, the figures for the IC50 in experiment [4], in experiment [5] and in experiment [6] were 13.9 µg/mL, 10.3 µg/mL and 8.86 µg/mL, respectively. The “Relative Binding” value in experiment [4], in experiment [5] and in experiment [6] was 1 ratio (IC50 wild-type / IC50 mutant) in each case.
